Substrate: O=S(=O)(O)CCSSCCS(=O)(=O)O
Assay: purified protein, by the assay type
Conditions: pH 7.0; 25.0 °C

B1: Thioredoxin Reductase + Thioredoxin (Bos taurus) (protein)
chain: MVKQIESKYAFQEALNSAGEKLVVVDFSATWCGPCKMIKPFFHSLSEKYSNVVFLEVDVDDCQDVAAECEVKCMPTFQFFKKGQKVGEFSGANKEKLEATINELI
Question: For B1, which Km is on record?
Answer: 72 µM
